Experimental data published in US11504441B2, “Radiolabeled compounds targeting the prostate-specific membrane antigen” (PROVINCIAL HEALTH SERVICES AUTHORITY, priority 2019, dated 2022).

Experiments:
[1] = tested on: PSMA-expressing LNCaP cancer xenografts; conditions: mouse, in vivo
in vivo = conditions: male, NODSCID 1L2RγKO, mouse, iv, total radioactivity

With `O=C(O)CCC[C@H](NC(=O)N[C@@H](CCCCNC(=O)[C@H](Cc1c2ccccc2cc2ccccc12)NC(=O)[C@H]1CC[C@H](CNC(=O)CN2CCN(CC(=O)O)CCN(CC(=O)O)CCN(CC(=O)O)CC2)CC1)C(=O)O)C(=O)O` [HTK03149] the “uptake in kidney and salivary gland compared to HTK03041” value [1] was “significantly decreases the uptake”.
With `O=C(O)CC[C@H](NC(=O)N[C@@H](CCCCNC(=O)[C@H](Cc1c2ccccc2cc2ccccc12)NC(=O)[C@H]1CC[C@H](CNC(=O)CN2CCN(CC(=O)O)CCN(CC(=O)O)CCN(CC(=O)O)CC2)CC1)C(=O)O)C(=O)O` [68Ga-HTK03041, metal not drawn] the tissue uptake at 1 h (in vivo; Adrenal glands uptake) was 8.9 ± 2.56 %ID/g, the tissue uptake at 1 h (in vivo; Blood uptake) was 1.43 ± 0.3 %ID/g and the tissue uptake at 1 h (in vivo; Bone uptake) was 1.29 ± 0.45 %ID/g. For the same molecule, the tissue uptake at 1 h (in vivo; Brain uptake) was 0.1 ± 0.05 %ID/g, the tissue uptake at 1 h (in vivo; Fat uptake) was 2.06 ± 0.59 %ID/g and the tissue uptake at 1 h (in vivo; Heart uptake) was 1.82 ± 0.21 %ID/g. It also gave a tissue uptake at 1 h (in vivo; Intestine uptake) of 1.14 ± 0.18 %ID/g, a tissue uptake at 1 h (in vivo; Kidneys uptake) of 170 ± 26.4 %ID/g and a tissue uptake at 1 h (in vivo; Lacrimal uptake) of 2.44 ± 1.79 %ID/g. For the same molecule, the tissue uptake at 1 h (in vivo; Liver uptake) was 1.38 ± 0.25 %ID/g, the tissue uptake at 1 h (in vivo; Lungs uptake) was 4.32 ± 0.62 %ID/g and the tissue uptake at 1 h (in vivo; Muscle uptake) was 0.75 ± 0.09 %ID/g. It also gave a tissue uptake at 1 h (in vivo; Pancreas uptake) of 1.47 ± 0.16 %ID/g, a tissue uptake at 1 h (in vivo; Salivary uptake) of 4.99 ± 0.88 %ID/g and a tissue uptake at 1 h (in vivo; Seminal uptake) of 1.03 ± 0.27 %ID/g. The tissue uptake at 1 h (in vivo; Spleen uptake) was 8.95 ± 3.22 %ID/g, the tissue uptake at 1 h (in vivo; Stomach uptake) was 0.41 ± 0.11 %ID/g and the tissue uptake at 1 h (in vivo; Tail uptake) was 1.36 ± 0.45 %ID/g. The tissue uptake at 1 h (in vivo; Testes uptake) was 1.34 ± 0.22 %ID/g, the tissue uptake at 1 h (in vivo; Thyroid uptake) was 2.48 ± 0.44 %ID/g and the tissue uptake at 1 h (in vivo; Tumor uptake) was 23.1 ± 6.11 %ID/g. For the same molecule, the excreta dose per gram or mL at 1 h (in vivo; Urine uptake) was 173 ± 93 %ID/g.
